The values that follow come from patent publication US6350431B1, “Compounds” (Nycomed Imaging AS, priority 1997, dated 2002).

Data set [1] in a line: Solubility of Sudan III. It counts as physicochemical.
The subject of data set [2] is HT-29 tumors. The data set can be described thus: Biodistribution of chromophore-polymer in HT-29 tumored mice after intravenous injection. Type of data set: in vivo, female immunodeficient mice. The note with it: for injected dose localized in the tumor: after one hour, solution in phosphate buffered saline injected. As to the method:
General Method Used For the Measurement of Chromophore-Polymer Distribution in the Mouse
Tac:N:NIH(S)-nufDF, female immunodef icient mice
Tac:Cr:NCr-nufBr, female immunodeficient mice
HT29-Human Colon Carcinoma
The mice were randomised into groups based on tumor volumes. On the day of the study, the test articles (Polymers 1,2) were injected into the mice via the tail vein. Chloroaluminium phthalocyanine tetrasulfonate was used as a reference compound (control) in one group of mice in these studies. […] The blood was collected by heart puncture and put into either EDTA or Lithium Heparin tubes. The samples were then spun down and the plasma was collected and weighed. The spleen, liver, kidneys, muscle and tumor were collected, rinsed with PBS and weighed in pre-tared tubes. The samples were then either refrigerated for immediate analysis or frozen at −20 degrees Celsius and subsequently analysed.
B) Plasma Collection and Preparation
Plasma was collected in tared Eppendorf tubes and the tubes were weighed. To each tube was added 1 mL of ethanol. The contents of the tubes were mixed with a vortex mixer and then micro-centrifuged at 14000 rpm for 2 min. The supernatant liquid was transferred by pipette into a clean and labelled Eppendorf tube. This procedure was repeated for all plasma samples. Each sample was transferred to a clean cuvette and the amount of chromophore was determined by absorbance at a predetermined wavelength. Concentration of the chromophore in the sample was determined by comparison with a standard curve generated from known concentrations of chromophore.
C) Organ Collection and Preparation
Organs were removed from the mice, placed in tared sample tubes, and the new weights were recorded. To each tube was added 1 mL of deionised water, and the organs were homogenised. The homogenate was transferred into a tared Eppendorf tube and the weight was recorded. To this homogenate was added 500 μl of ethanol, the mixture was mixed by vortex mixer, and the contents of the tube was centrifuged in a micro-centrifuge at 8000 rpm for 2 min. The supernatant was transferred by pipette into a clean Eppendorf tube. To the residual pellet was added 500 μl of ethanol, the mixture was mixed by shaking vigorously in a vortex mixer, and the sample was centrifuged again. The supernatants were combined, transferred to a clean cuvette, and the concentration of the chromophore was determined spectroscopically at pre-determined absorbance by comparison with the standard curve. The mean concentration of the chromophore in each organ was determined by regressional analysis.

The test system of data set [3] is HT-29 tumors. The data set can be described thus: Photographic / visual light imaging of HT-29 tumors from mice 24 hours post injection of contrast agent. Type of data set: in vivo, female immunodeficient mice. As to the method:
FIG. 4 is a photograph taken under room fluorescent light of female immunodeficient mice with exposed human HT-29 tumors 24 hours post intravenous (tail vein) injection with 0.1 mg/(g body weight) in PBS of the blue contrast agent NC100526. The labeled sheet to the right of the mice was spotted with PBS solutions of several contrast agents of this invention and then dried in order to show how they appear under various illumination and imaging conditions. The tumors (indicated by arrows) have been sliced to expose their interiors as well as their exteriors.
The light source was ambient fluorescent room light.
The photograph was taken with black-and-white infrared film using irradiation at 780 nm from an array of light-emitting diodes. These conditions gave maximum absorption and contrast enhancement of NC100448 as evidenced by the darkened spot of contrast agent on the paper chart.
FIGS. 8a and 8b are photographs of two views taken from different angles of HT-29 tumors sliced open and removed from mice at 24 hours post injection with 10 mg/(g body weight) of NC100505 in PBS and irradiated with 366 nm wavelength light. […] In the black and white photograph they appear as bright spots. Other organs and the skin appear normal.
FIG. 10a is a photograph of a collection of excised tumors viewed under ambient fluorescent room light. The top row contains tumors resected from mice at 24 hours post i.v. injection with NC100505 in PBS. The second, third, and fourth rows are tumors resected from mice 24 hours post i.v. injection with PBS solutions of NC100526, NC100448, and NC100524, respectively. […]
FIG. 11 is a photograph of a set of excised tumors irradiated with 780 nm infrared light that were removed from mice 24 hours post injection with PBS solutions of NC100448 (top row) and indocyanine green (bottom row). The image was recorded with an infrared sensitive CCD camera (Bischke, Type N-CCD-4024, fitted with a Computar TV Zoom lens 1:1.2/12.5-75) on VHS tape (Maxell HGX Plus) at 30 frames/sec using a Panasonic AG-1310P HQ Video Cassette Recorder with super 4-Head VHS SQPB). […]

The mark [4] stands for this setting: one hour post intravenous injection of phosphate buffered saline solution, mice with HT-29 tumors.
Setting [5] is: three hours post intravenous injection of phosphate buffered saline solution, mice with HT-29 tumors.
Where [6] appears, read: female immunodeficient mice with HT-29 tumors.
Setting [7] is: 3 hr, i.v. 0.05 mg/(g body weight) in PBS, HT 29 tumored mice.
The mark [8] stands for this setting: 6 hr, i.v. 0.05 mg/(g body weight) in PBS, HT 29 tumored mice.
Setting [9] is: 24 hr, i.v. 0.05 mg/(g body weight) in PBS, HT 29 tumored mice.
Where [10] appears, read: at 24 hours, i.v. 0.05 mg/(g body weight) in PBS.
Setting [11] is: three hours versus one hour post intravenous injection.
The mark [12] stands for this setting: 6 hr after injection, Table 2, female immunodeficient mice with HT-29 tumors.
Setting [13] is: 48 hr after injection, Table 2, mice with HT-29 tumors.
Setting [14] is: within 24 hours, Table 2 experiment.

As to `Oc1ccc2ccccc2c1N=Nc1ccc(N=Nc2ccccc2)cc1` [Sudan III], in data set [1], the “solubility in sesame oil” value was “soluble in sesame oil” and the solubility in water result is listed as “very water insoluble”.
In the case of `CC1(C)C(/C=C/C=C/C=C/C=C2\N(CCCCS(=O)(=O)O)c3ccc4ccccc4c3C2(C)C)=[N+](CCCCS(=O)(=O)[O-])c2ccc3ccccc3c21` [indocyanine green, reference compound], the “detection in the tumor” value in data set [2] (setting [4]) and in data set [2] (setting [5]) was “negligibly detected” in each case.
“Aluminum Chlorophthalocyanine Tetrasulfonyl Chloride Polymer With PEG5,000-α,ω-diamine [Polymer 2]”: the “injected dose localized in the tumor” value in data set [2] (setting [6]) is 2.5%. The “detection in the tumor” value in data set [2] (setting [4]) is “detected in the tumor”.
For “Aluminum Chlorophthalocyaninetetrasulfonyl Chloride Polymer With PEG3,400-α,ω-diamine [Polymer 1]” the same measures were 4% and “detected in the tumor”.
As to “Bisthioether 2:1 Dye:Polymer Reaction Product Between 2-[2-[2-chloro-3-[[1,3-dihydro-1,1,-dimethyl-3-(3-sulfopropyl)-2H-benz[e]indol-2-ylidene]ethylidene]-5-(ethoxycarbonyl)-1-cyclohexen-1-yl]ethenyl]-1,1-dimethyl-3-(3-sulfopropyl)-1H-benz[e]indolium, Inner Salt, Sodium Salt and Disodium PEG3,400-α,ω-dithiolate [NC100448]”, in data set [2] (setting [7]), the Plasma was 14.33 ± 1.33 percent injected dose of the contrast agent per gram of tissue and the Tumor was 5.57 ± 0.73 percent injected dose of the contrast agent per gram of tissue. In data set [2] (setting [8]), the Plasma is 8.44 ± 1.33 percent injected dose of the contrast agent per gram of tissue and the Tumor is recorded as 8.6 ± 1.53 percent injected dose of the contrast agent per gram of tissue. In addition, in data set [2] (setting [9]), the Plasma is given as 0.46 ± 0.40 percent injected dose of the contrast agent per gram of tissue and the Tumor was 7.53 ± 0.74 percent injected dose of the contrast agent per gram of tissue. For the same compound, in data set [2] (setting [10]), the “clearance of contrast agent from the blood (in words)” value is “largely cleared”, the “concentration of contrast agent in the tumors (in words)” value is “remained relatively high” and the “contrast agent in the muscle (in words)” value is on record as “not increased”. Moreover, the “detection in the tumor” value in data set [2] (setting [4]) was “detected in the tumor”. Besides, the “detection in the tumor” value in data set [2] (setting [5]) is reported as “detected in the tumor”. Also, in data set [2] (setting [11]), the “concentration of the contrast agent in the blood, FIG. 3B relative to FIG. 3A” value is on record as “decreased” and the “concentration of the contrast agent in the tumor, FIG. 3B relative to FIG. 3A” value was “increased”. Also, the “appearance of tumors, black-and-white infrared film, irradiation at 780 nm” value in data set [3] (24 hours after injection of 0.05 mg/(g body weight) in PBS, versus control tumors) is given as “uniformly darker than control tumors”. Further, the “appearance of excised tumors irradiated with 780 nm infrared light, infrared sensitive CCD camera” value in data set [3] (24 hours post injection in PBS, compared to tumors from mice injected with ICG) was “significantly darker”. Besides, in data set [3] (24 hours post injection, sliced tumors), the “contrast agent / darkening along the tumor edges” value is “do not show darkening around the edges”.
For ClAlPc(SO2NHPEG5000)4 [Example 20], the “injected dose localized in the tumor” value in data set [2] (setting [6]) was 2.5%.
“[NH(PEG3400)NHSO2PcAlCl (SO3H)2SO2]n [Example 18]”: the “injected dose localized in the tumor” value in data set [2] (setting [6]) stood at 4%.
For “[PcAlCl(SO3H)3SO2NH]2[PEG 10,000] [NC100481]”, in data set [2] (setting [12]), the Muscle is given as 10.3 ± 17.9 percent injected dose of the contrast agent per gram of tissue, the Plasma is listed as 7.4 ± 0.3 percent injected dose of the contrast agent per gram of tissue and the Tumor is reported as 21.0 ± 7.1 percent injected dose of the contrast agent per gram of tissue. For the same compound, in data set [2] (24 hr after injection, Table 2, mice with HT-29 tumors), the Tumor is listed as 16.6 ± 3.9 percent injected dose of the contrast agent per gram of tissue. In data set [2] (setting [13]), the Muscle is reported as 59.5 ± 42.9 percent injected dose of the contrast agent per gram of tissue and the Tumor is given as 9.1 ± 4.5 percent injected dose of the contrast agent per gram of tissue. For the same compound, the “concentration of contrast agent in the tumor (in words)” value in data set [2] (after 48 hours, Table 2 experiment) is on record as “remained at a high concentration”. Also, in data set [2] (setting [14]), the “clearance of contrast agent from the blood (in words)” value is “cleared” and the “clearance of contrast agent from the muscle (in words)” value is recorded as “cleared”.
As for “chloroaluminum phthalocyanine tetrasulfonate [reference compound]”, the “detection in the tumor” value in data set [2] (setting [4]) is listed as “negligibly detected”.
